A short description of this data set: soluble on expression in E. coli; label from the status in PepcDB or PDB records.
Take “ATDTLANEDCFRHESLVPNLDYERFRGSWIIAAGTSEALTQYKCWIDRFSYDDALVSKYTDSQGKNRTTIRGRTKFEGNKFTIDYNDKGKAFSAPYSVLATDYENYAIVEGCPAAANGHVIYVQLRMTLRRFHPKLGDKEMLQHYTLDQVNQNKKAIEEDLKHFNLKYEDLHSTCH”: the “soluble on expression in E. coli” value is “soluble”.

For the sequence “MPSGYGVLLATHDDDTVDVFTSGRKMRLTCSPNIDAASLKKGQTVRLNEALTVVEAGTFEAVGEISTLREILADGHRALVVGHADEERVVWLADPLIAEDLPDGLPEALNDDTRPRKLRPGDSLLVDTKAGYAFERIPKAEVEDLVLEELVPR”, the “soluble on expression in E. coli” value was “soluble”.

For the sequence “MKENDLIPNVKVMIDVRNMNNISDTDGSPNDFTSIDTHELFNNKKILLISLPGAFTPTCSTKMIPGYEEEYDYFIKENNFDDIYCITNNDIYVLKSWFKSMDIKKIKYISDGNSSFTDSMNMLVDKSNFFMGMRPWRFVAIVENNILVKMFQEKDKQHNIQTDPYDISTVNNVKEFLKNNQL”, the “soluble on expression in E. coli” value is given as “soluble”.

As for “QRDDVTGVQTLAGNLDPTQWTKTKSLSPLSGSLDPLDYTQRLALIPQRHFSGAGDEMIPTELAERYNRLLGNTACSQLIIVAGATHETGWEEAWKVWRGL”, the “soluble on expression in E. coli” value is recorded as “not soluble”.

As for “MPSENPIGKTMKSIDEQSLHNARRLFESGDIDRIEVGTTAGLQQIHRYLFGGLYDFAGQIREDNISKGGFRFANAMYLKEALVKIEQMPERTFEEIIAKYVEMNIAHPFLEGNGRSTRIWLDLVLKKNLKKVVNWQNVSKTLYLQAMERSPVNDLELRFLLKDNLTDDVDNREIIFKGIEQSYYYEGYEKG”, the “soluble on expression in E. coli” value is recorded as “soluble”.

“MALHTVLIILSLLPMLEAQNPEHANFTIGEPITNETLSWLSDKWFFMGAAFRKLEYRQAIQTMQSEFFYLTTNLINDTIELRESQTIGDQCVYNSTHLGFQRENGTFSKYEGGVETFAHLIVLRKHGAFMLAFDLKDEKKRGLSLYAKRPDITPELQEVFQKAVTHVGMDESEIIFVDWKKDRCGQQEKKQLELGKETKKDPEEGQA”: the “soluble on expression in E. coli” value is “soluble”.

For “MNEEVRELERLVPAAATGDKTALQRIISIVYPQVLRYARTRLSGGRHPTPEDVAQEICLAVATSIAKFVDQGKPFMAFVYGIASNKVADAHRLYSRDLSNPTDEVPETEIDNDTPESFALLAAGSNRVQQLLDLLGDKPREILTLRVFVGLSAEETAEIVGSTPGAVRVAQHRALATLRKAIEQETGE”, the “soluble on expression in E. coli” value was “not soluble”.

Regarding “GHMGLEPYEISTLFEQRQAMLQSIKEGVVAVDDRGEVTLINDAAQELLNYRKSQDDEKLSTLSHSWSQVVDVSEVLRDGTPRRDEEITIKDRLLLINTVPVRSNGVIIGAISTFRDKT”, the “soluble on expression in E. coli” value is listed as “soluble”.

As to “MGSDKIHHHHHHMKLDPKLAQDIVNKMMTQIPYNVNMMDDQGYIIASGDPQRLNTLHVGAVAAINQQTTLPMHDSYGDHGQPGVNMPIVFNDQIIGVIGITGDPEKVTPLASLLRVATELLLDQNQHNLQEKQYETTLNRFLYHWSQVTQQIDTNTNLLLEAQQLGIDILKPRAAIVLPKQTLPIGLLDATDFQFDLDTTTLIVLTALPATIARFTTYCQTGQHRLGIGLFDRNVGNSVRQARQTLRISQIFQRPDFIHYSQIAFIQALLDGHLHVTDLQQRFQKLASTANGRELIKTLGMFVRLNTNVLQTAAALHIHRNTLSYRLDRLQQIFQLDPHQTLDLFTLYVGYLYFKADK”, the “soluble on expression in E. coli” value was “not soluble”.

For “MSSKMVKSSEIVGKLNLRAHQEGGFFAETFRDSSVFLSTSQLPPTFKVDRAVSTSIYFLLPSGSVSRLHRIPMAETWHFYLGEPLTVVELYDDGKLKFTCLGPDLFEGDQKPQYTVPPNVWFGSFPTKDVHFSQDGALLKAEARDSENHFSLVGCTCAPAFQFEDFELAKRSDLLSRFPQHESLITMLSYPE”, the “soluble on expression in E. coli” value is “soluble”.

In the case of “MGSDKIHHHHHHMKILIDATAALMGGGQTYLINLLNYTEILEHDIIILSPKKLTLPSIQNIHRIDVDKSLENPFIRAVWMRRYLPDLIKERKVDILFCPGGLITKGIPSNCVKVTMFRNMIPFDLKQRVKYPLGYMRFRNWLLERLLLDSMIEADLVIFISEYASKVIKKRAKKKLRNTVIIPHGLSAEFRIFDKKAIPRPQWLPAEDYLLYVSILDVYKAQIELIQGFALLKKWRQTSEKLLLVGPDEERSYYTKMIKKEIVKHGLQNDVIITGPVPYNELPALYYHAKVNIFASECENCPNILLEALGAGRPTLVSDCEPMPEFGGDSVEYFDPTSPEDFANSIIRFIDDENKMKELAKKAGERSLLFDWEKVGRLTWQSIENIYNSKTINM”, the “soluble on expression in E. coli” value was “not soluble”.

(Values after the DeepSol protein solubility set.)
